Assay results as given in US20140154256A1 (published 2014).
Where two headings read alike, the source gives them in different places.

Assays:
human IL-12 [1] = target: T1, human IL-12 (human, UniProt P29459 23-219; P29460 23-328); experiment: SPR (Biacore)
T1 construct: also called hIL-12
T1 sequence (looked up) 1: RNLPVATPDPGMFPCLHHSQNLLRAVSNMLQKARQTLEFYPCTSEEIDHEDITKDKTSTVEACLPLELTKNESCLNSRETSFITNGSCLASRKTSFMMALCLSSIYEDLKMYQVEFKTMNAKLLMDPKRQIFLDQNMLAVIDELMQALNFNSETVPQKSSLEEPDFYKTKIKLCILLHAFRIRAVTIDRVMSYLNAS
T1 sequence (looked up) 2: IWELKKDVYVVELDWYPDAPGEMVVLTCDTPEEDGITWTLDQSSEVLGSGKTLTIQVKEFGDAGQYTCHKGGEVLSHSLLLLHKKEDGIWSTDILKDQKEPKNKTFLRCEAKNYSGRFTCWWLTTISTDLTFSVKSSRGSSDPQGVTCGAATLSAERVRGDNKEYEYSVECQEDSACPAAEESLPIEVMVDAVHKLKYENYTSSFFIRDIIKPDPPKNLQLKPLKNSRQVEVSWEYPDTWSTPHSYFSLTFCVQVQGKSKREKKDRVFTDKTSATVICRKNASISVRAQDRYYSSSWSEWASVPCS

human IL-12 [2] = target: T1, human IL-12; experiment: SPR (Biacore); remark: listed apart in the source
human IL-12 [3] = target: T1, human IL-12; experiment: cell-based or functional assay
human IL-12 [4] = target: T1, human IL-12; experiment: cell-based or functional assay; remark: listed apart in the source
human IL-18 [5] = target: T2, human IL-18 (human, UniProt Q14116 37-193); experiment: SPR (Biacore)
T2 construct: also called hIL-18

human IL-18 [6] = target: T2, human IL-18; experiment: SPR (Biacore); remark: listed apart in the source
human IL-18 [7] = target: T2, human IL-18; experiment: SPR (Biacore); remark: listed apart in the source
human IL-18 [8] = target: T2, human IL-18; experiment: cell-based or functional assay
human IL-18 [9] = target: T2, human IL-18; experiment: cell-based or functional assay; remark: listed apart in the source
human IL-18 [10] = target: T2, human IL-18; experiment: cell-based or functional assay; remark: listed apart in the source
[11] = target: T3, human CD20 on human B cell line Raji (human, UniProt P11836 1-297); experiment: preliminary cell surface binding study
T3 construct: whole, on cells; also called hCD20
T3 sequence (looked up): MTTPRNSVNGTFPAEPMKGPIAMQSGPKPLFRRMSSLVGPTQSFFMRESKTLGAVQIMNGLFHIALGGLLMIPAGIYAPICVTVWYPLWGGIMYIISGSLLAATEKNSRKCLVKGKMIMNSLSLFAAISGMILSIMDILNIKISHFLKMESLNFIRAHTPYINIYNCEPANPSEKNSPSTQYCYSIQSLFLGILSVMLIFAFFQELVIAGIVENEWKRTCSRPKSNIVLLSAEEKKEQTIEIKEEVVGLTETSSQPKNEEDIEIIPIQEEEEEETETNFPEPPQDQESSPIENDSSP

mouse IL-1α = target: T4, mouse IL-1α (mouse, UniProt P01582 115-270); experiment: cell-based or functional assay
T4 sequence (looked up): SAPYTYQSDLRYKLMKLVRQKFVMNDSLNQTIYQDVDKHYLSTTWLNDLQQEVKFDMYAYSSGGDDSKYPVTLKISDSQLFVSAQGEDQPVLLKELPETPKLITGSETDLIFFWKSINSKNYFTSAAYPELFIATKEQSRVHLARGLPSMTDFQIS

mouse IL-1β = mouse IL-1β (mouse, UniProt P10749 118-269); experiment: cell-based or functional assay
Chain of mouse IL-1β (P10749 118-269 limits assumed): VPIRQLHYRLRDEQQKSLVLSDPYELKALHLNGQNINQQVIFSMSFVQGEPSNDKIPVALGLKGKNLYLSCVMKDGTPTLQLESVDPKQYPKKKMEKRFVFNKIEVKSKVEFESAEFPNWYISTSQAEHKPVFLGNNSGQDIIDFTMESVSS

human IL-12 [12] = target: T1, human IL-12; experiment: SPR (Biacore); remark: listed apart in the source
human IL-12 [13] = target: T1, human IL-12; experiment: cell-based or functional assay; remark: listed apart in the source
[14] = target: T3, human CD20 on human B cell line Raji; experiment: flow cytometry staining of Raji B cells, FITC goat anti-murine IgG
From the text: The anti-CD20/anti-CD3 DVD-Ig was generated as chimeric Ig i.e the constant region was a human constant region. For binding analysis, human T cell line Jurkat and B cell line Raji were blocked with human IgG and then stained with murine anti-hCD3 mAb OKT3, murine anti-hCD20 mAb 1F5, and anti-CD20/anti-CD3 DVD-Ig. Cells were then washed and stained with FITC-labeled goat anti-murine IgG (with no anti-hIgG cross-reactivity). Anti-CD20/CD3 DVD-Ig bound both T and B cells, whereas CD3 and CD20 mAbs bound only T or B cells, respectively. The amino acid sequence of CD20/CD3 DVD-Ig is disclosed in Table 25.

B1: ABT874 (fully human mAb against human IL-12p40) (antibody, V domains shown)
VH: QVQLVESGGGVVQPGRSLRLSCAASGFTFSSYGMHWVRQAPGKGLEWVAFIRYDGSNKYYADSVKGRFTISRDNSKNTLYLQMNSLRAEDTAVYYCKTHGSHDNWGQGTMVTVSS
VL: QSVLTQPPSVSGAPGQRVTISCSGSRSNIGSNTVKWYQQLPGTAPKLLIYYNDQRPSGVPDRFSGSKSGTSASLAITGLQAEDEADYYCQSYDRYTHPALLFGTGTKVTVLG
notes: Fully human mAb with a Vλ
Q: What does the source list for B1?
A: Kd (human IL-12 [1]): 0.0647 nM; Kd (human IL-12 [2]): 0.065 nM; IC50 (M), IL-12-induced IFN-γ production by PHA blast cells (PBMC assay) (human IL-12 [3]): 5e-12 M; Potency (IC50), PHA-Blast Assay (human IL-12 [4]): 0.005 nM

B2: ABT325 (fully human mAb against human IL-18) (antibody, V domains shown)
VH: EVQLVQSGTEVKKPGESLKISCKGSGYTVTSYWIGWVRQMPGKGLEWMGFIYPGDSETRYSPTFQGQVTISADKSFNTAFLQWSSLKASDTAMYYCARVGSGWYPYTFDIWGQGTMVTVSS
VL: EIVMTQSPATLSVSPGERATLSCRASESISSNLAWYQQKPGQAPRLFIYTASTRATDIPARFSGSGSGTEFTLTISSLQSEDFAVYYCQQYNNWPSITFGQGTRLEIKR
notes: Fully human mAb with a Vκ
Q: B2 was tested. Which Kd (human IL-18 [5]) did it give?
A: 0.137 nM

Q: What about the Kd (human IL-18 [6]) of the same binder?
A: 0.137 nM

Q: And the Kd (human IL-18 [7])?
A: 0.191 nM

Q: What about the “IC50 (M), KG-1 bioassay (IFN-γ production)” value (human IL-18 [8]) of the same binder?
A: 3e-10 M

Q: And the “Potency (IC50), KG-1 Assay” value (human IL-18 [9])?
A: 0.3 nM

Q: And the “Potency (IC50, M), KG-1 bioassay (IL-18)” value (human IL-18 [10])?
A: 6.87e-11 M

B3: anti-CD20/anti-CD3 DVD-Ig (CD20CD3DVD-Ig) (bispecific antibody, human IgG1, kappa)
heavy: not shown
light: QIVLSQSPAILSASPGEKVTMTCRASSSLSFMHWYQQKPGSSPKPWIYATSNLASGVPARFSGSGSGTSYSLTISRVEAEDAATYFCHQWSSNPLTFGAGTKLELKRADAAPTVSIFPPQIVLTQSPAIMSASPGEKVTMTCSASSSVSYMNWYQQKSGTSPKRWIYDTSKLASGVPAHFRGSGSGTSYSLTISGMEAEDAATYYCQQWSSNPFTFGSGTKLEINRTVAAPSVFIFPPSDEQLKSGTASVVCLLNNFYPREAKVQWKVDNALQSGNSQESVTEQDSKDSTYSLSSTLTLSKADYEKHKVYACEVTHQGLSSPVTKSFNRGEC
notes: VCD20-linker-VCD3-constant; chimeric Ig with human constant region; also called Anti-CD20/CD3 DVD-Ig
Q: Does B3 bind [11]?
A: binds

B4: mIL-1α/β DVD-Ig (bispecific antibody, mouse IgG2a, kappa)
heavy: EVQLQQSGPELVKPGTSVKMSCKTSGYTFTSYVMHWVKQKPGQGLEWIGYIIPYNDNTKYNEKFKGKATLTSDKSSSTAYMELSSLTSEDSAVYYCARRNEYYGSSFFDYWGQGTTLTVSSAKTTAPSVYPLAPQVILKESGPGILQPSQTLSLTCSFSGFSLSTYGTAVNWIRQPSGKGLEWLAQIGSDDRKLYNPFLKSRITLSEDTSNSQVFLKITSVDTEDSATYYCANGVMEYWGLGTSVTVSSAKTTAPSVYPLAPVCGDTTGSSVTLGCLVKGYFPEPVTLTWNSGSLSSGVHTFPAVLQSDLYTLSSSVTVTSSTWPSQSITCNVAHPASSTKVDKKIEPRGPTIKPCPPCKCPAPNLLGGPSVFIFPPKIKDVLMISLSPIVTCVVVDVSEDDPDVQISWFVNNVEVHTAQTQTHREDYNSTLRVVSALPIQHQDWMSGKEFKCKVNNKDLPAPIERTISKPKGSVRAPQVYVLPPPEEEMTKKQVTLTCMVTDFMPEDIYVEWTNNGKTELNYKNTEPVLDSDGSYFMYSKLRVEKKNWVERNSYSCSVVHEGLHNHHTTKSFSRTPGK
light: DIQMTQSPASLSASVGETVTITCRGSGILHNYLVWYQQKQGKSPQLLVYSAKILADGVPSRFSGSGSGTQYSLKINSLQPEDFGSYYCQHFWSTPFTFGSGTKLEIKRADAAPTVSIFPPSIVMTQTPKFLLVSAGDRVTITCKASQSVNHDVAWYQQMPGQSPKLLIYFASNRYTGVPDRFTGSGYGTDFTFTISTVQAEDLAVYFCQQDYSSPYTFGGGTKLEIKRADAAPTVSIFPPSSEQLTSGGASVVCFLNNFYPKDINVKWKIDGSERQNGVLNSWTDQDSKDSTYSMSSTLTLTKDEYERHNSYTCEATHKTSTSPIVKSFNRNEC
Q: Which results are given for B4?
A: IC50 (M), in vitro potency (assay not described) (mouse IL-1α): 2e-09 M; IC50 (M), in vitro potency (assay not described) (mouse IL-1β): 8e-10 M

B5: anti-IL-12 mAb clone 1D4.1 (antibody, V domains shown)
VH: EVTLRESGPALVKPTQTLTLTCTFSGFSLSKSVMGVSWIRQPPGKALEWLAHIYWDDDKYYNPSLKSRLTISKDTSKNQVVLTMTNMDPVDTATYYCARRGIRSAMDYWGQGTTVTVSS
VL: DIVMTQSPDSLAVSLGERATINCKASQSVSNDVAWYQQKPGQPPKLLIYYASNRYTGVPDRFSGSGSGTDFTLTISSLQAEDVAVYYCQQDYNSPWTFGGGTKVEIKR
notes: Parent anti-IL-12 mAb
Q: What does the source list for B5?
A: Kd (human IL-12 [12]): 0.12 nM; Potency (IC50, M), PBMC assay (IL-12) (human IL-12 [13]): 4.18e-10 M

B6: murine anti-human-CD20 mAb clone 5F1 (antibody, V domains shown)
VH: QVQLRQPGAELVKPGASVKMSCKASGYTFTSYNMHWVKQTPGQGLEWIGAIYPGNGDTSYNQKFKGKATLTADKSSSTAYMQLSSLTSEDSAVYYCARSHYGSNYVDYFDYWGQGTTLTVSS
VL: QIVLSQSPAILSASPGEKVTMTCRASSSLSFMHWYQQKPGSSPKPWIYATSNLASGVPARFSGSGSGTSYSLTISRVEAEDAATYFCHQWSSNPLTFGAGTKLELKR
notes: Murine mAb
Q: Does B6 bind [14]?
A: binds
